Tests used:
[1] = Plasma rhIL-10, IL-10 delivery construct and IL-1Ra immunoassays, DSS study; type: in vivo, mice; settings: 0.3 and 3 mg/kg, 4 hours after final dose
From the text: Plasma cytokines were quantified using the V-plex Proinflammatory Panel 1 Mouse Kit. Plasma IL-1Ra was quantitated by sandwich immunoassay using an antibody pair from the Mouse IL-1Ra/IL-1F3 DuoSet ELISA (R&D Systems #DY480), Streptavidin SULFO-TAG Labeled (MSD #R32AD-1), Multi-Array 96 Plate Pack, SECTOR Plate MSD #L15XA-3 and Read Buffer T (4×) (MSD #R92TC-2). Samples were read on the QuickPlex SQ 120 plate reader (Meso Scale Discovery, Rockville, Md.).
The Human IL-10 Base kit (MSD #K151AOA-4) was used to measure rhIL-10 in plasma. […] The MSD Small Spot IL-10 plate was incubated with Diluent 41 (25 μL/well) for 30 minutes at room temperature with shaking before use. Controls and samples were diluted 2-fold with pooled CD-1 mouse plasma (BioIVT, custom order), and the calibration standards were also prepared in mouse plasma. Standards, diluted samples and controls were added (25 μL/well), and the plate was incubated for 2 hours at room temperature with shaking. The plate was washed 3 times with phosphate buffered saline with Tween-20 (PBST), and 25 μL/well 1×SULFO TAG Anti-human IL-10 Antibody (prepared in Diluent 45) was added to the plate. The plate was incubated for 1 hour at room temperature with shaking. Following a wash step, 150 μL/well of 2×MSD Read buffer was added, and the plate was read in the MSD Sector Imager 600 plate reader.

[2] = tested on: chemokines, growth factors, cytokines; test: Luminex 38-plex circulating cytokines, oxazolone colitis (Example 14); type: in vivo, mice
Experimental: Each sample was measured in duplicate.

IL-1Ra = test: Systemic IL-1Ra in non-inflamed mice (ELISA MSD); type: in vivo; settings: construct 10 mg/kg; rhIL-10 3 mg/kg; oral
[3] = tested on: colonic marker expression; test: Colonic sigmoidoscopy spray in NHP: pro-/anti-inflammatory and tissue repair markers; type: in vivo, Macaca fascicularis; settings: 1, 3, 10 mg
Experimental: To assess the effect of an IL-10 delivery construct on pro-inflammatory and anti-inflammatory markers the IL-10 delivery construct was delivered to male Macaca fascicularis monkeys (about 5 to about 8 kg) by colonic sigmoidoscopy with a spray nozzle. The IL-10 delivery construct was administered at doses of 1 mg, 3 mg, and 10 mg formulated in albumin.

B1: IL-10 delivery construct: recombinant homodimeric fusion protein: N-terminal methionine, cholix386 domain, polyGlySer spacer, recombinant human IL-10 (protein)
chain: MVEEALNIFDECRSPCSLTPEPGKPIQSKLSIPSDVVLDEGVLYYSMTINDEQNDIKDEDKGESIITIGEFATVRATRHYVNQDAPFGVIHLDITTENGTKTYSYNRKEGEFAINWLVPIGEDSPASIKISVDELDQQRNIIEVPKLYSIDLDNQTLEQWKTQGNVSFSVTRPEHNIAISWPSVSYKAAQKEGSRHKRWAHWHTGLALCWLVPMDAIYNYITQQNCTLGDNWFGGSYETVAGTPKVITVKQGIEQKPVEQRIHFSKGNAMSALAAHRVCGVPLETLARSRKPRDLTDDLSCAYQAQNIVSLFVATRILFSHLDSVFTLNLDEQEPEVAERLSDLRRINENNPGMVTQVLTVARQIYNDYVTHHPGLTPEQTSAGAQAGGGGSGGGGSGGGGSPGQGTQSENSCTHFPGNLPNMLRDLRDAFSRVKTFFQMKDQLDNLLLKESLLEDFKGYLGCQALSEMIQFYLEEVMPQAENQDPDIKAHVNSLGENLKTLRLRLRRCHRFLPCENKSKAVEQVKNAFNKLQEKGIYKAMSEFDIFINYIEAYMTMKIRN
modifications: homodimer
plasma rhIL-10 relative to background of Vehicle treatment [1]: 10-300 fold higher | increased serum levels of MCSF, IL12 p70, IL-3 ([2]; 8.45 mg/kg): Treatment-mediated suppression | reduction of plasma IL-23 compared with Vehicle ([2]; 8.45 mg/kg prophylactic): 73% | reduction of plasma IL-6 compared with Vehicle ([2]; 8.45 mg/kg prophylactic, Luminex): 33% | increase of systemic IL-1Ra (IL-1Ra): about 3 fold | expression of anti-inflammatory markers [3]: increased expression of anti-inflammatory markers | expression of pro-inflammatory markers [3]: decreased expression of pro-inflammatory markers | expression of tissue repair and wound healing biomarkers [3]: increased expression of biomarkers associated with tissue repair and wound healing

— patent publication US11160869B2 (priority 2019, dated 2021)
